Values of other authors as cited in article PMC5904127.

Target: apocalmodulin (UniProt P0DP23)

neuromodulin IQ domain (from UniProt P17677)
Kd: 2 µM
